This note sets out measurements from PMC8141644 (2021).

Where two headings read alike, the source gives them in different places.

Test [1] deals with T1, EGFR-ECD (UniProt P00533 25-645). The test is described as follows: BLI.
In test [2] the target is T1, EGFR-ECD. Kind of test: BLI. The source holds these as a separate data set.

B1: dFEB4-1 (antibody, V domains shown)
VH: AVTLDESGGGLQTPGGALSLVCKASGFTFSSHGMLWVRQAPGKGLEFVAGISTDGSSTSYGAPVKGRATISRDNGQSTVRLQLNNLRAEDTGTYYCAKDAYRCRNCAEDIDAWGHGTEVIVSS
VL: ALTQPSSVSANPGETVKITCSGGGYDGSYYYGWYQQKSPGSAPVTVIYDNTNRPSNIPSRFSGSLSGSTNTLTITGVQAEDEAVYFCGGYDRSGGIFGGGTTLTVL
What is called Kd is the free concentration of one partner at which half of the binding sites on the other are occupied at equilibrium, for simple one-to-one binding. Lower therefore signals a tighter complex. B1 registered a Kd in the test with EGFR-ECD [1] of 3.7 nM.

B2: FEB4 (antibody, V domains shown)
VH: B1 VH
VL: ALTQPSSVSANPGETVKITCSGGYSDDGSYYYYGWFQQKSPGSAPVTVIYDNTNRPSNIPSRFSGSTSGSTSTLTITGVRAEDEAVYYCGSIDTGYAGIFGAGTTLTVL
Consider B2, for which, in the test with EGFR-ECD [2], binding was characterised by a dissociation constant (Kd) of 29.3 nM.
